Assay [1] addresses TarM(Se), WTA glycosyltransferase TarM of S. epidermidis, wild type (S. epidermidis). Description: crystal structure.
The target is the same in assay [2]. Description: SEC; Superdex 200 increase 10/30, calibrated column; buffer D: 20 mM triethanolamine pH 7.8 (TarM(Se)_(G117R)) or 8.5 (TarM(Se) and mutant proteins), 250 mM LiCl, 10 mM β-mercaptoethanol, 5% glycerol.
The target in assay [3] is TarM(Se) N203A mutant (S. epidermidis). The assay is described as above.
Assay [4] addresses TarM(Se) Q265A mutant (S. epidermidis). The description is as above.
In assay [5] the target is TarM(Se) N9A mutant (S. epidermidis). The description is as above.
Assay [6] has as its target TarM(Se) E10A mutant (S. epidermidis). The assay is described as above.
Assay [7] addresses TarM(Se) N255A mutant (S. epidermidis). The description is as above.
The test system of assay [8] is TarM(Se). As to conditions: 30 mM ligand; acceptor site; only two RboP units and one phosphate ordered; monomeric mutant.
The target in assay [9] is TarM(Se) K233A mutant (S. epidermidis). Description: SEC; Superdex 200 increase 10/30, calibrated column; buffer D: 20 mM triethanolamine pH 7.8 (TarM(Se)_(G117R)) or 8.5 (TarM(Se) and mutant proteins), 250 mM LiCl, 10 mM β-mercaptoethanol, 5% glycerol. (SEC sorts molecules by how far they enter the pores of the column.)

By stoichiometry N is commonly meant the number of molecules, sites or subunits per partner or assembly. With “TarM(Se), WTA glycosyltransferase TarM of S. epidermidis, wild type (enzyme)”, the stoichiometry N in assay [1] and in assay [2] was 3 throughout.

Regarding TarM(Se) N203A mutant (enzyme), the stoichiometry N in [3] was found to be 3.

On to TarM(Se) Q265A mutant (enzyme), for which the stoichiometry N in assay [4] is 3.

In [5], TarM(Se) N9A mutant (enzyme) showed a stoichiometry N of 3.

For TarM(Se) E10A mutant (enzyme), the stoichiometry N in assay [6] came out at 3.

With TarM(Se) N255A mutant (enzyme), the stoichiometry N in assay [7] worked out at 3.

For `NCCCCCCOP(=O)(O)OC[C@@H](O)[C@@H](O)[C@@H](O)COP(=O)(O)OC[C@@H](O)[C@@H](O)[C@@H](O)COP(=O)(O)OC[C@@H](O)[C@@H](O)[C@@H](O)COP(=O)(O)OC[C@@H](O)[C@@H](O)[C@@H](O)CO` [4RboP-(CH2)6NH2], the “X-ray crystal structure (cocrystallization)” value in assay [8] is on record as “The 4RboP-(CH2)6NH2 compound was introduced into the TarM(Se)G117R crystals through cocrystallization”.

Take TarM(Se) K233A mutant (enzyme): in assay [9], the stoichiometry N was determined as 3.
